{"source": "paper PMC5874619", "about": "“Enzymatic Preparation of 2,5-Furandicarboxylic Acid (FDCA)—A Substitute of Terephthalic Acid—By the Joined Action of Three Fungal Enzymes” (Microorganisms, 2018)", "assay_in_all_cases": "HPLC, varied substrate, Michaelis-Menten plot", "key": {"[1]": {"test_system": "T1, PostAAO", "T1 construct": "gene aao", "assay_type": "biochemical, Pleurotus ostreatus"}, "[2]": {"substrate": "O=Cc1ccc(C=O)o1", "assay_type": "biochemical, Cyclocybe aegerita", "conditions": "pH 6.0"}, "[3]": {"substrate": "O=Cc1ccc(CO)o1", "assay_type": "biochemical, Cyclocybe aegerita", "conditions": "pH 6.0"}}}
{"molecule": "O=Cc1ccc(CO)o1", "note": "[HMF, 5-hydroxymethylfurfural]", "values": [{"measurement": "Km", "setting": "[1]", "value": 7.2, "unit": "mM"}]}
{"molecule": "(Cyclocybe aegerita) (protein) EPGLPPGPLENSSAKLVNDEAHPWKPLRPGDIRGPCPGLNTLASHGYLPRNGVATPVQIINAVQEGLNFDNQAAVFATYAAHLVDGNLITDLLSIGRKTRLTGPDPPPPASVGGLNEHGTFEGDASMTRGDAFFGNNHDFNETLFEQLVDYSNRFGGGKYNLTVAGELRFKRIQDSIATNPNFSFVDFRFFTAYGETTFPANLFVDGRRDDGQLDMDAARSFFQFSRMPDDFFRAPSPRSGTGVEVVIQAHPMQPGRNVGKINSYTVDPTSSDFSTPCLMYEKFVNITVKSLYPNPTVQLRKALNTNLDFFFQGVAAGCTQVFPYGRD", "values": [{"measurement": "Km", "setting": "[2]", "value": 0.82, "unit": "mM"}, {"measurement": "kcat", "setting": "[2]", "value": 29.2, "unit": "s⁻¹"}, {"measurement": "kcat/Km", "setting": "[2]", "value": 35600, "unit": "M⁻¹ s⁻¹"}, {"measurement": "Km", "setting": "[3]", "value": 6.07, "unit": "mM"}, {"measurement": "kcat", "setting": "[3]", "value": 222, "unit": "s⁻¹"}, {"measurement": "kcat/Km", "setting": "[3]", "value": 36600, "unit": "M⁻¹ s⁻¹"}]}
